# According to PMC8939767 (Science Translational Medicine, 2022):
# Target: SARS-CoV-2 spike S2P (soluble S trimer with two proline mutations) (SARS-CoV-2, Wuhan reference, UniProt P0DTC2, stabilised)
# Experiment: BLI; […] (AHC) sensors, […], association 120 s, […]
# Settings: both partners purified
binder,measurement,value
"CC40.8 broadly neutralizing antibody (IgG) (antibody, V domains shown, also called CC40.8 bnAb; CC40.8 mAb) VH: EVQLLESGGGLVQPGGSLRLSCAASGFTFSSYVMTWARQAPGKGLEWVSAISGTGYTYYADSVKGRFTVSRDNSKNTLFLQMSSLRAEDTAVYYCAITMAPVVWGQGTTVTVSS VL: SYELTQPPSVSVSPGQTARITCSGDALPKRYAYWYQQKSGQAPILVIYEDKKRPSGIPERLSGSKSGTVATLTISGAQVEDEADYYCYSTDSSGNHAVFGGGTQLTVL",binding result,binds
